Data as given in patent US20050074855A1 (Regeneron, published 2005).

Biological target: T1, human IL-6 (human, UniProt P05231 30-212)
T1 construct: Soluble analyte injected at 1.25, 2.5 and 5 nM in the BIAcore assay; also called hIL-6
Assay: SPR (BIAcore 2000), fusion captured by anti-human Fc, hIL-6 injected
Procedure: Affinity Measurements. The affinity of the various scFv-scFv-Fc fusion proteins for human IL-6 was measured using a BIAcore 2000. […] Kinetic analysis using BIAevaluation software was performed to obtain the association and dissociation rate constants.

T1 sequence (P05231 30-212 limits assumed): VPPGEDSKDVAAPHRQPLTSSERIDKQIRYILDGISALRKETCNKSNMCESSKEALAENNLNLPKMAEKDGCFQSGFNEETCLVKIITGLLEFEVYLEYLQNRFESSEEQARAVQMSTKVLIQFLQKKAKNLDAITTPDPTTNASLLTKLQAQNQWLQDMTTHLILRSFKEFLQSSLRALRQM

Row | Kd [nM] | Binder
1 | 0.296 | 8F10.8F10 ScFv-ScFv-Fc (Fc fusion, Monospecific tandem scFv-Fc; not shown: Fc domain of human IgG1) QVQLQQSGAELAKPGASVKMSCKASGYTFTTYWMHWIKQRPGQGLEWIGYINPSTGYSEFNQKFNDKATLTADRSSSTAYMQLNSLTSEDSAVYYCARDAYYGNYEDYWGQGTTLTVSSAGGGGSGGGGSGGGGSSIVMTQTPKFLLVSAGDRVTITCKASQSVSYDVAWYQQKPGQSPKLLIYYESNRYSGVPDRFTGSGNGTDFTFTISTVQAEDLAVYFCQQVYTSPYTFGGGTKLEIKRGGGGSGGGGSGGGGSQVQLQQSGAELAKPGASVKMSCKASGYTFTTYWMHWIKQRPGQGLEWIGYINPSTGYSEFNQKFNDKATLTADRSSSTAYMQLNSLTSEDSAVYYCARDAYYGNYEDYWGQGTTLTVSSAGGGGSGGGGSGGGGSSIVMTQTPKFLLVSAGDRVTITCKASQSVSYDVAWYQQKPGQSPKLLIYYESNRYSGVPDRFTGSGNGTDFTFTISTVQAEDLAVYFCQQVYTSPYTFGGGTKLEIKR
2 | 0.43 | 8F10 ScFv-Fc (Fc fusion, how it was built is not described; not shown: Fc domain of human IgG1) QVQLQQSGAELAKPGASVKMSCKASGYTFTTYWMHWIKQRPGQGLEWIGYINPSTGYSEFNQKFNDKATLTADRSSSTAYMQLNSLTSEDSAVYYCARDAYYGNYEDYWGQGTTLTVSSAGGGGSGGGGSGGGGSSIVMTQTPKFLLVSAGDRVTITCKASQSVSYDVAWYQQKPGQSPKLLIYYESNRYSGVPDRFTGSGNGTDFTFTISTVQAEDLAVYFCQQVYTSPYTFGGGTKLEIKR
